Measured values as given in PMC11252414, “Enhancing the performance of porous silicon biosensors: the interplay of nanostructure design and microfluidic integration”.

Columns and labels:
Settings in all cases: protein: commercial; label: none; single strand
lactoferrin (LF) [1] = biological target: T1, lactoferrin (LF) (bovine (milk), UniProt P24627 20-708); test: RIFTS (porous Si interferometry); plain microchannel, 30 ul/min; Selection buffer: PBS (137 mM NaCl, 10 mM Na2HPO4, 2.7 mM KCl, 2 mM KH2PO4) + 1 mM MgCl2, pH 7.4, room temperature; GI fluid at 37 C
T1 sequence (P24627 20-708): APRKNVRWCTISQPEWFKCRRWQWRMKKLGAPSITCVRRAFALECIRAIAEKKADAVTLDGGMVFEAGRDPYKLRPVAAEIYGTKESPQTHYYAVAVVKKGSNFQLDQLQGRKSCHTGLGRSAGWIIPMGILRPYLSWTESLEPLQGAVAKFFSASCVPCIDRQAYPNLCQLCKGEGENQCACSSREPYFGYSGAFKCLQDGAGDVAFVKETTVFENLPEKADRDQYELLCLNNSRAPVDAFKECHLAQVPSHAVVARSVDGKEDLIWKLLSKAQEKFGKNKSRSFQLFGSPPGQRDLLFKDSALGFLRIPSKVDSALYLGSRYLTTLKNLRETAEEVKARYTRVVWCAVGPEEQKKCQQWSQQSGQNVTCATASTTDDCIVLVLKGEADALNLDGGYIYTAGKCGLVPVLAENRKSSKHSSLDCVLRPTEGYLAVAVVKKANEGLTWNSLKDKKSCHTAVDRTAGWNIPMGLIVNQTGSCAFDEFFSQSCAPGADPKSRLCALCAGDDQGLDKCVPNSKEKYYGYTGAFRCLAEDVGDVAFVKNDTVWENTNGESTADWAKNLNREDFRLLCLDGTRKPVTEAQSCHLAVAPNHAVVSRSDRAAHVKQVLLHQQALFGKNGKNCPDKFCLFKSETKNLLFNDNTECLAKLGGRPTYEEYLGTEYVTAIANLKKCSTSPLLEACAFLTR

lactoferrin (LF) [2] = biological target: T1, lactoferrin (LF); test: RIFTS (porous Si interferometry); SHM (herringbone) microchannel, 30 ul/min; Selection buffer: PBS (137 mM NaCl, 10 mM Na2HPO4, 2.7 mM KCl, 2 mM KH2PO4) + 1 mM MgCl2, pH 7.4, room temperature; GI fluid at 37 C
lactoferrin (LF) [3] = biological target: T1, lactoferrin (LF); test: RIFTS (porous Si interferometry); impeller-integrated microchannel, 30 ul/min; Selection buffer: PBS (137 mM NaCl, 10 mM Na2HPO4, 2.7 mM KCl, 2 mM KH2PO4) + 1 mM MgCl2, pH 7.4, room temperature; GI fluid at 37 C
lactoferrin (LF) [4] = biological target: T1, lactoferrin (LF); test: RIFTS (porous Si interferometry); cell setup, selection buffer, Tris-passivated, 1 mM Mg2+; apparent; Selection buffer: PBS (137 mM NaCl, 10 mM Na2HPO4, 2.7 mM KCl, 2 mM KH2PO4) + 1 mM MgCl2, pH 7.4, room temperature; GI fluid at 37 C
lactoferrin (LF) [5] = biological target: T1, lactoferrin (LF); test: RIFTS (porous Si interferometry); PEG-passivated, LF-spiked porcine GI fluid, 37 C; apparent, LOD 600 nM suggests uM; Selection buffer: PBS (137 mM NaCl, 10 mM Na2HPO4, 2.7 mM KCl, 2 mM KH2PO4) + 1 mM MgCl2, pH 7.4, room temperature; GI fluid at 37 C

B1: Lac 9-2 anti-LF aptamer with T10 spacer (ssDNA)
DNA: CAGGCAGGACACCGTAACCGGTGCATCTATGGCTACTAGCTCTTCCTGCCTATTTTTTTTTT
modifications: 3'-amino, coupled via NHS/EDC to carboxylated porous Si
For B1, the Kd (lactoferrin (LF) [1]) was 2000 ± 1000 nM, the Kd (lactoferrin (LF) [2]) was 1600 ± 600 nM and the Kd (lactoferrin (LF) [3]) was 1300 ± 600 nM. It also gave a Kd (lactoferrin (LF) [4]) of 2100 ± 900 nM and a Kd (lactoferrin (LF) [5]) of 11.8 ± 1.9 nM.
